In the assay the target is mouse CD22 (mouse) (UniProt P35329). As to the kind of experiment: cell-based or functional assay.
Sequence of UniProt P35329 (P35329 22-868): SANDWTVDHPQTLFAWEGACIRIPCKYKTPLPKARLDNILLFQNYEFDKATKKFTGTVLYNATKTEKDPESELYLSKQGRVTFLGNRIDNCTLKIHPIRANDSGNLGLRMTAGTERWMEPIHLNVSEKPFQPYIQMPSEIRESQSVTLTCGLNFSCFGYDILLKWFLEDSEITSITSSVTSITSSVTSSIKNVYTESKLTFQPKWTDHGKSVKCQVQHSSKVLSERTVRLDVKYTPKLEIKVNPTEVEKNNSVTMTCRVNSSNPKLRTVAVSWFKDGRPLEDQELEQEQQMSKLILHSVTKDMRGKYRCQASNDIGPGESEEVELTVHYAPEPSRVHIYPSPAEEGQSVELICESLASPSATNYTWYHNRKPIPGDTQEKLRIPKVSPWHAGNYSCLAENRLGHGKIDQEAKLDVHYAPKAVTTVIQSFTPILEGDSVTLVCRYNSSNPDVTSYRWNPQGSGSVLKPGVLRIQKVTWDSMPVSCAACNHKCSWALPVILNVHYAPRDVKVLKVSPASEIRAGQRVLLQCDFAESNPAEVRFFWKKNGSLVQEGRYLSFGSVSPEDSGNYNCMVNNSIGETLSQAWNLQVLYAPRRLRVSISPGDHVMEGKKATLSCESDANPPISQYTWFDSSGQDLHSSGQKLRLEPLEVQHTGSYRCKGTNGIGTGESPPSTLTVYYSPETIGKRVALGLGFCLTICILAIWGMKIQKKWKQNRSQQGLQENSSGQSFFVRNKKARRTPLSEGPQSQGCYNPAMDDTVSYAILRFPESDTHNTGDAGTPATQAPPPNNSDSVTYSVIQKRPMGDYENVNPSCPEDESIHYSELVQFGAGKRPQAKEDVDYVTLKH

For “mouse monoclonal anti-CD22 antibody (Cy34, BioXCell)”, the receptor occupancy necessary to achieve IC50 in the pSHP1/SHP1 assay was below 50%.

The values above are taken from patent publication US20240287175A1.
